# Test results from the domain aggregation screens of Martell et al. (2025).
# Assay: soluble fraction after stress (log2 fold change); higher = more stays soluble; pooled small domains, quantitative proteomics
# Settings: stress: 50 degC
# Procedure, shortened: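 Custom libraries of small protein domains were pooled and measured in a high-throughput format, with quantitative proteomics as the read-out. Each library was stressed at 50°C. The value is the log2 fold change in the amount of each protein that stays soluble after stress, used as a measure of aggregation propensity; higher values mean more of the protein stays soluble.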
row,Sequence,soluble fraction (log2)
1,HMHSDSEIEKGYTDDGQKLSNVNGVYMTKSEMYNKGIVEKDPNTGEEVMGRNRVNPVTGELE,0.164
2,HMKALYHQLVDLLKKRMESGMIPHDKLPSERELTAQYGVSRTTVRLALQELENTGYIYRRHGKGTFVSDI,-2.27
3,HMTISDTAYQAFLEQLGVGMVVEHKRFGEGVITGMPKGKIRITFEEGTKSFQARALAESGMLK,-0.59
4,HMNTLGTNIAKLRESQKLTQEELGKLSGVSRVSIYKIETGQSTPRDTTLQNIAEALHTTPSALRS,0.142
5,HMKTKTAPPDSIPPAWLKESATLRPDLNQAQIKASAEVFLDHHRAKGTTLADWRPAWRNWIRRERA,0.116
6,HMDLFREERRQAILDWLATAGRVSVAELSASFGVSEVTVRADLQALADRRLVVRTHGGAMMAG,-1.43
7,HMEDKQRRMGELVALLNRAAYAYYTKDEPIMADVQYDRLYDELLSLEKETGVQMADSPTHRV,-0.173
8,HMEEDPIIIAQRFLNIFRQLHIFSEEKKESFNKMLLEQPAEIRGALRSLPGGGLLQDYIDDLESKA,-0.151
9,HMKTEIGQAMRKLRKAKKMTQDTLAEKLGVAPANISRYEKGQQGIEVDKLPTLADALGVSVPEFFAIASG,0.0437
10,HMVPDGFDQLTEREYQVAMAVGKGLNNKEIASQLGLGERTVKAHLTTTFEKLHVRDRVQLALIVNRL,-0.556
11,HMSFISRMVVAVEDIALSTRPNSTPSGDKYVSKGTVLLMEKRENDWVEVRQPSSPLSGWAPKTSLLSV,-0.546
12,HMQENVIIYPNPTKSVIYLSEKVEFILYNILGEIIFIGDNNKIDLNSFDNGVYIFESGNVRTQIIK,0.0489
13,HMLSYNINEESKSSIMNVNVLKNNFASIDVEKLQNIIFTTFKKYNYYLNDFSSMNLLLHLLIIVDREL,0.337
14,HMAPLATLEAGEDGSVKLPNLAGHSIREVAAALGGAKLSLIPIGSGTSWKQTPAPGAVLHSGDTVTVYF,0.142
15,HMGTLNLSQAYREWGMAEIEANRDYYGPVRFDDIAFQMSPAGQQLQARFVASYADRLHDAIEGEL,-0.304
16,HMTRDGMTKEAFDSLLEDIMNILLDNGLKATTMGSIAKSLKMSKRTLYEIFSSKSQMVEEAIIASHTKMM,0.15
17,HMDNLATRILKELNNNDGFLPLSDKSQPEAIYQAFGISKKSYKTAIGTLYKKRLITISENGIQLTD,-0.688
18,HMSVPVNAPMPGTILDIKVKAGAAVKAGDVVMILEAMKMENEISAPQDGTIASIDVRKGDTVNSGDVLYTM,0.0456
19,HMREVDKRYYKINIAGTDRIFTNVYRVGDRYSAYEADKNGKPGKFLYSLSQAEIDRAVISGSFDFK,0.105
20,HMKMQIGEIIRKYRKSNHMTQEEMAERLGVSAPAVNKWENGNSMPDIMLLAPITRLLGISLDELLSFE,-1.24
21,HMKKDNLKKIKSIDEDIENELFKLGIYHFEQISIWSSKNAEWIENFLNLPNYVRANQWVEQAKILK,-1.47
22,HMKEKDAYTSEILDTLKNAKLLVVEGTVYPLLTRLKNDGLLNYRWEESTSGPPRKYYGLTDEG,-0.445
23,HMNKVQTFIIEKHIKEVFEHTNRTYYRSGQYYFQTRDEFSMALKRFLKDREPNKKNWIDSIINRA,-0.298
24,HMNATLSSSYPTSVVTDGEIYKLTFGLNGKYNGQEQITVKPHGDSNIYDSGGLRAYQNTQSNNVVTLN,0.1
25,HMKKALTAEQEARVRELYFRGINYYSANRYQDAIAEWRKVLAIDPNHEKAKNNIRQTLILLK,-0.257
26,HMKNVSVKMILSPESLGEIQVDLVFSKGKDLEIMLRPETAEVAKLIQSNSASLREQLSLEHKGPLSLNVS,-0.626

row,Sequence,soluble fraction (log2)
1,HMAPVVELEDVTIVRGKATLLDRVNWVIDETDRWVIVGPNGAGKTTLLQVVSANLHPTSGKAMILDEVL,0.023
2,HMKEKPLWAIRITELREEHYFTQTDVSKALGIAQTTYAGYETGRHEPDFETMIKIADIYKVSLDYLIGR,-1.27
3,HMTMPDFGYMRVSYAEARRQLQAIGISVSTIEKVEDPSHTSATGDMVISQYPAAGSKIEGTVTLYVSVAS,-0.779
4,HMSAHDLQVVLRWIGTDEPMTDQRYRITTEDGRTFEGRTDDAGLTERVASTIPFGRYSIEALD,-0.441
5,HMGIDAIDNFVSKIIMKIEGLGESEVPTSTIGKFIMEGLQYLDTVAYVRYASVYKNFKEAKDFEQFVGSL,-0.179
6,HMNHGDATTETQAEIMAILSDMKPHPITELNTIKRPYEQIDTALTYLINEEKIYRMDGMIFIG,-0.694
7,HMSWGDVKLTMWGAEEDQTMLREMADAFIEQNADKGNVTIEIGVQSESSAKDTVLADPESAADVFA,0.00693
8,HMLPADETEARVLNVLGSEPLHVDEIRNQADLPIEKISATLAMMELKGMVRQVGGMNYVAMR,0.0898
9,HMREIRIIAEEGHGRLDAFLAGREELGLSRSRIKGLIEEGQVTLNGAVPKAKQPVSPGDEIVVSVPD,0.141
10,HMISIKEAVFPFSRFPGVDTLLGPEMKSTGEVMGLADNFGHAYAKSQIASGSKLPESGTLFVSVKNSD,-0.309
11,HMDYGSLQRAIENQLEVRNYQKPKKFLTKIIQLMETIMVRHGVMVVGLTGTGKTTVIETLSRSMEQ,-0.302
12,HMIANDDEIRKVVLEVIEEQPKAVEDVKNGRDRILDFLVGQVMKKTRGKANPSLASNLMKEEIEK,0.177
13,HMHDNPLSAQEQRVLDLIAAGKTSKEIASQLFLSDGTVRNYTTSIFNKLNANNRVEAINIAQENGW,0.486
14,HMAMYSREKLKKLREDRGLTQYELAKIAGISVVTLNKIESSDSAKPFVKTLNKIAQALGVGIDELS,-0.127
15,HMQQPIPGEAYLTRRPGSDHFQIAFTIDGHRVRESSGTSDKVAAAALAQKRYEEVWREIKLGEK,0.2
16,HMGPGSYVVNVKPYAYVSINGRDYGRTPVGPIRLDPGTYKVVFTHEHRPSFSRTIVVEAGRETFETFPYPG,-0.29
17,HMSDTFTITTESGRIDKIITAHETTHTRSQVQKWLQDGLVTVNGNPVKANFKVTAGDVVTVTIPEVK,0.104
18,HMYTVKELSRLTGLTPRTLRYYDAIGLLSPARNRDNDYRLYGGAEVDRLQEILLYREMGLPLEEIGRILD,-1.45
19,HMHPELSDSQRTLIALMASGLKDEAIAVEMGVGARTVRRKVQELYELLGVRTRFQAGVAANQRGW,-1.79
20,HMLTRSASREELDQLLKRLRQNLKQKNFFWPPDKEKSLVLYLENLFSKFPLNSSDIRFLHGIIRTLSEK,-0.178
21,HMSSADIPFSRFIDDVEAQRVEKVTIDGVNVTGRYRSDGAAFKTIIPSQYDGLVPILRQNKVDITVKDA,0.123
22,HMNLMQIHVARPPNQLGVFSQEEVAAGLQSGRFLPTDQAWRDGMSAWTPLSQWAEFSSVVAAV,0.083
23,HMYAVDTIHKGTITEMTDKGAVVSLGDNIDGFAPARQLVKEDGTTLKLGDTADFKVIEFSKATKRITLSH,0.286
24,HMPYFLKQSNTRSKGLYLQIYHSFYVPGKGSRNKSYKAIGYVSELIKNGIEDPITYAKNLVDELNNNSSTP,-3.75
25,HMRVESVGDRIRRLRKSLGLTQVKLAQMLGIKAPSVVQWESDKTNLSGENLLNAAKLFGVTPDYILYGG,-0.0657
26,HMQLTDSDFTRLYTYVKNSYGIDLSKKKQLISSRLTNMLIQQGYRDFTQYTDEIISGKNPEMVSAMLNRLT,-0.232

row,Sequence,soluble fraction (log2)
1,HMEFEKYKYHYIFDDVLGLRIVWDRGKEHFSYFVNEELAEKSRKSDKDALEVMFYLEHKRWPEEGELENY,-0.687
2,HMNVKQALLELMQRKPELTGSAIARAIGYSPAVISQYLKDGYPGDVVKLTTLIGDFIRRIDEKERS,-0.182
3,HMGSTYGISRVDNETSRTHGWLVTIQRRGVIYRKHFSDGVFGGKQRSFAAAKEYRDEVIAAHP,-0.672
4,HMTLKTISLTEAIKNTNEGNYSKLVLDGNELTITEQGKETPSLKTYTEPGTSLKEQGFDLSKVEFEAREQS,0.152
5,HMKRTFGEISPLPSGRYRARYRGPDGERYPAPVTFLSRMDAETWLSAQARKVSSGDWTPPVGVVA,-0.16
6,HMLLKIRPDLDGNEIMKLLNIAAGPNVGKAYEHLLELRLEHGPLGKERAEQELMNWWSARSQ,-1.09
7,HMKKYISEEQAKQAALETAGGGSVVKIKFTTDDGIKVYEIDIINGNYEYEITVHAETGKILDVDKERIH,-1.04
8,HMQITDSGAIETIIDKIIADNPGQVTQYLSGKDKVFGFFVGQTMKASQGKANPAEVNKILQEKLK,0.00553
9,HMGIDSSVYVEARYELGHLYLKQKKYAAAYASFKEILDMYASTTPGVLPGAYNKLAEIGMKRIPKNKL,-2.74
10,HMFSAASSQISSYVRSVVDKAQTYEQAYEILAKNPLGFKLDALEDELFRIIANAEILGADDDE,-0.887
11,HMHIELNDTQKRILNFLSDDPNLSAVRLAEQLGISSRNVEKNIKKLKEYGILIRHGSPKNGYWEIVV,0.0335
12,HMQEQIVQGIVKYFDAEKQFGFIAGDDGVDRFFNAKSIQGNAVKTGDRVRFLAISHIRGPRALKISA,-0.852
13,HMQLTPAQHAILAKAIHSSDGKIEWFPDNVKGGARKKVLEGMFNRALITPDGEGWRIAAEGYDALGMPRP,-0.0604
14,HMGGTAGKINAIGVNFRTGPSTSYTSLGLLGKDTAVTVIGTSGKWYKVTIVSTGKTGYVYATYVNLTP,-1.81
15,HMEAQFIDINDVRIGTYVYVDLGWIKHPFALNSFKITSRDQIDTLIKLGVKRIRWSPEKSDS,-1.3
16,HMNNSVAYSTFLNDIRTNTLKDVDMTSNSETINVTKKDGTKYQTVMPMYDRDLLADLSKTDATVTGQP,0.28
17,HMQLGQMIVKLRKEQGLTQETFAKKFNVTRQTVSNWENEKSYPDLHTLVKISDEFHLSLDILLK,-2.8
18,HMNNPLPDLLKYFRKKKHLTQEQVAKQLSVSRASYASYETGRIIPGMQHIMELSRILEHDFLFAYTLAVQ,-2.34
19,HMTMSFSELLRGLRKSRGMSQAELATAVGLSQAQVSQIETGKLLPSPELIEKLAALYGIALGSA,-0.139
20,HMPPHGHIVELLPEQDFGRIETGDGRLVYFHRNSVLDGDFAQLAVGDAVRFAEEMGERGPQASSVHVE,0.0967
21,HMTYYEGYYRKNQKGFGFVIVDGRDEDIYIDAKNMNGALNNDLVVVEELKGQNGKKTEGRVVKVLKKE,-0.185
22,HMVNGTPADPYDVLGVESSASPEELRAAWQTLVRQNHPDQLMARGVPLEAVKLAEARLVAINQAWDDLTK,0.0363
23,HMSPLPDRESLGAIEKLISLLGSSEWTVREKATRELGAFGYLARPVLQRELATSGDPEVSRRLERILSNL,-0.332
24,HMHSDWITWWYLKDKRFDDDYSLWDRQPVHPEYFEVVKEFKAPPESNPGGLDEVKRILRTYIPDAFAP,-0.976
